The experiment concerns the target T1, Clp-protease subunit R (ClpR) from Synechococcus sp. (Synechococcus sp., UniProt Q9L4P4 1-228).
T1 construct: ClpR, Clp-protease subunit R, Synechococcus sp., UniProtKB Q9L4P4; Stood in the crosslinked ClpCP3R complex; also called R-subunit; source: part of the Synechococcus ClpCP3R complex, obtained as described previously according to [20]
T1 sequence (looked up): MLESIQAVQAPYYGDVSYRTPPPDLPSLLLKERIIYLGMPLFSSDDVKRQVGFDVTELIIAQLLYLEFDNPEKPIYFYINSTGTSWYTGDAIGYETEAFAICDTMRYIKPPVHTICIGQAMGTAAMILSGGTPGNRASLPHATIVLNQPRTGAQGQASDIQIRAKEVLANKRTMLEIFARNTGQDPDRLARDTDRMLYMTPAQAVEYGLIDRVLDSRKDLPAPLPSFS
The experiment is described as follows: cross-linking; Clp-protease multisubunit complex (ClpCP3R) crosslinked with H12/D12 BS3; tryptic digest separated into 192 fractions, LC-MALDI-TOF/TOF, FINDX (7 ppm, intensity parameter 0.22), MSMS validation. The settings on record: both partners purified.

B1: Clp-protease subunit P3 (ClpP3) from Synechococcus sp. (natural protein, UniProt Q9L4P3 1-199, looked up)
chain: MPIGVPSVPYRLPGSSFERWIDIYNRLAMERIIFLGQEVTDGLANSIVAQLLYLDSEDSSKPIYLYINSPGGSVTAGMAIYDTMQYIKSPVITICLGLAASMGAFLLCAGSKGKRLALPHSRIMIHQPLGGTGRRQASDIEIEAKEILRIKKLLNQIMADRTGQPLEKIEKDTDRDYFMSAEEAREYGLIDQVIAERPV
notes: ClpP3, Clp-protease subunit P, Synechococcus sp., UniProtKB Q9L4P3; Stood in the crosslinked ClpCP3R complex (P3 and R in a proteolytic core of two heptameric rings, ClpC in a hexameric ring); also called P3-subunit; source: part of the Synechococcus ClpCP3R complex, obtained as described previously according to [20]; not shown: His6, C-terminal, kept
Consider B1, for which the binding result is “binds”.

Source of the values: paper PMC3377668, “Detection of Crosslinks within and between Proteins by LC-MALDI-TOFTOF and the Software FINDX to Reduce the MSMS-Data to Acquire for Validation” (PLoS ONE, 2012).
